B1: IMSLWGLVS (peptide)
peptide: IMSLWGLVS
notes: also called NAB: STAT6 (variant 1 of Chmielecki et al.)

The binders below were run against T1, HLA-A02.01 (human) (assay: competition with radiolabeled reference peptide, purified MHC I).
T1 construct: Purified class I MHC
Experimental: (§1) Peptides were incubated at varying concentrations with these complexes for 2 days, and the amount of remaining radiolabeled peptide bound to […] was measured using size exclusion gel-filtration.

Binder	IC50
KKLMLLRLNL (also called SEC31A(-1))	289 nM
ALMSAMTTS (also called TGFBR2(-1))	139 nM
SLVRLSSCV (also called TGFBR2(-1))	29.9 nM
RLSSCVPVAL (also called TGFBR2(-1))	54.2 nM
FVQGKDWGL (also called SPOP, F133L)	34 nM
YLTKWPKFFL (also called XPOT(-1))	42.9 nM
FVMSDTTYKI (also called TTK(-1))	62.4 nM
LVRLSSCVPV (also called TGFBR2(-1))	1240 nM
FALCGFWQI (also called SLC35F5(-1))	0.4 nM
KSLVRLSSCV (also called TGFBR2(-1))	280 nM
VRLSSCVPVA (also called TGFBR2(-1))	1210 nM
VMSDTTYKI (also called TTK(-1))	19.6 nM

What follows are binders tested against T2, HLA-A03.01 (human) in the same assay as above.
T2 construct: Purified class I MHC
Experimental: as §1

Binder	IC50
LMLLRLNLRK (also called SEC31A(-1))	6 nM
MLLRLNLRK (also called SEC31A(-1))	1.3 nM
WSLKKVPALK (also called SMAP1(-1))	94.9 nM
ITTVKATETK (also called SEC63 (+1))	1250 nM
KSKKKETFKK (also called SEC63 (+1))	39.6 nM
RKISNWSLKK (also called SMAP1(-1))	131 nM
KSRQNHLQLK (also called SMAP1(-1))	4.7 nM
KISNWSLKKV (also called SMAP1(-1))	115 nM
KLMLLRLNLR (also called SEC31A(-1))	48.4 nM
TYTCAITTVK (also called SEC63 (+1))	2360 nM
KSKKKETFK (also called SEC63 (+1))	74.3 nM

What follows are binders tested against T3, HLA class I molecule A02.01 (assay: competition with radiolabeled reference peptide on purified MHC I).
T3 construct: Purified MHC class I complex; also called HLA-A02:01
Experimental: as §1

Binder	IC50
VLHESNSPYI (also called MEK, C121S)	131 nM
YIIIEYCFYG (also called PDGFRa, T674I)	113 nM
FQNGKMALS (also called FRG1B, L52S)	3280 nM
LLSTPPLSPS (also called MYC, P57S)	1770 nM
SLYIVGFYG (also called MEK, P124L)	1060 nM
QTGVMICAYL (also called PTEN, R130Q)	9760 nM
IIIEYCFYG (also called PDGFRa, T674I)	16 nM
TIGGPTLVII (also called KIT, T670I)	10700 nM
YLGNHMNIAN (also called KIT, V654A)	1340 nM
KITEQEKDFL (also called PIK3CA, E542K)	1400 nM
QQQSDLQPPA (also called MYC, E39D)	646 nM
MNIANLLGA (also called KIT, V654A)	128 nM
ALSASNSCFI (also called FRG1B, L52S)	226 nM
HMNIANLLGA (also called KIT, V654A)	430 nM
VMAYVMAGV (also called HER2, G776insYVMA)	2 nM
FSGEYIPTV (also called RAC1, P29S)	3 nM
IIEYCCYGDL (also called KIT, T670I)	7310 nM
IIEYCFYGDL (also called PDGFRa, T674I)	1090 nM
SLYIVGFYGA (also called MEK, P124L)	390 nM
IANLLGACTI (also called KIT, V654A)	6420 nM
FELLPIPPL (also called MYC, T58I)	553 nM
VIIEYCCYG (also called KIT, T670I)	191 nM
AFSGEYIPTV (also called RAC1, P29S)	781 nM
LLQEFDVQEA (also called NDRG1: ERG)	45 nM
QQSDLQPPA (also called MYC, E39D)	70 nM
B1	7320 nM
LQEFDVQEAL (also called NDRG1: ERG)	50300 nM

What follows are binders tested against T3, HLA class I molecule A02.01 (assay: pMHC-I dissociation half-life, 125I-b2m).
Experimental: Briefly, synthetic genes encoding biotinylated MHC-I heavy and light chains are expressed in E. coli and purified from inclusion bodies using standard methods. […] These reactions are carried out in streptavidin coated microplates to bind the biotinylated MHC-I heavy chains to the surface and allow measurement of radiolabeled light chain to monitor complex formation. Dissociation is initiated by addition of higher concentrations of unlabeled light-chain and incubation at 37° C. Stability is defined as the length of time in hours it takes for half of the complexes to dissociate, as measured by scintillation counts.

Binder	Stability (T1/2 (h))
VLHESNSPYI (also called MEK, C121S)	1.9 h
YIIIEYCFYG (also called PDGFRa, T674I)	0 h
FQNGKMALS (also called FRG1B, L52S)	0 h
LLSTPPLSPS (also called MYC, P57S)	0 h
SLYIVGFYG (also called MEK, P124L)	0 h
QTGVMICAYL (also called PTEN, R130Q)	0 h
IIIEYCFYG (also called PDGFRa, T674I)	1.2 h
TIGGPTLVII (also called KIT, T670I)	0 h
YLGNHMNIAN (also called KIT, V654A)	0 h
KITEQEKDFL (also called PIK3CA, E542K)	0 h
QQQSDLQPPA (also called MYC, E39D)	0 h
MNIANLLGA (also called KIT, V654A)	0.3 h
ALSASNSCFI (also called FRG1B, L52S)	0.8 h
HMNIANLLGA (also called KIT, V654A)	0 h
VMAYVMAGV (also called HER2, G776insYVMA)	16.5 h
FSGEYIPTV (also called RAC1, P29S)	6.8 h
IIEYCCYGDL (also called KIT, T670I)	0 h
IIEYCFYGDL (also called PDGFRa, T674I)	0 h
SLYIVGFYGA (also called MEK, P124L)	0.4 h
IANLLGACTI (also called KIT, V654A)	0 h
FELLPIPPL (also called MYC, T58I)	0 h
VIIEYCCYG (also called KIT, T670I)	0.5 h
AFSGEYIPTV (also called RAC1, P29S)	0 h
LLQEFDVQEA (also called NDRG1: ERG)	2.5 h
QQSDLQPPA (also called MYC, E39D)	0 h
B1	0 h
LQEFDVQEAL (also called NDRG1: ERG)	0 h

— US20220282217A1 (BIONTECH US, published 2022)
